Source: publication PMC5433843

B1: EGFP-Mps1^WT [Drosophila] / MBP-PP1-87B [Drosophila] (parent)
chain 1: MTTPVPRRTKDMMALGLDSDSEDDFNTPYRPRQAAAGERKQQPVASFQVQTRGKENEPHPLPINMLPRRVSELTMMDSDSDEEDIKSNHNLNCAILNDSFVLSPSQELTNSNSNITTRRTPSAAPLKQSDSNLSFLGRFNDMGINCSSQGSPVANSEKQVAKKTAPTLQAAPSATERRPLQETETPLRNELPSTSKTKPDADFITPQVRTIGSTLAGKSRSAVSNDFRAQKVLFQTPMTVSRAAPVASDSISFSLCDTITESPDIPEPPKKAEPPKSQHPSKKSLDHVFRESDKDNVPDKVDNVEPKELVSIPAVAVPPEQPSHKTSNILKIKNHEYTIDKKLGCGGSSSVFLARRSDSGNEFALKVVDLQADPQVVQGYLNETKLLAKLQGNVCVVALYDYQLVREESKLYMVMEKGDCDLNKILQSYTTNLPLYSLMNILYQMLQAVNYIHQHGVIHSDLKPANFLMVSGRLKLIDFGIASNIAVDSTSIIKFSQAGTFNYISPEALTDTSTGNSPMRRADQPKIKISTKSDVWSLGCILYLLLYQKTPFGHIRNVYAKMSAITTPGTSIEYPAIPPYYPIMLVHMAKNCLQLNPKKRPSCTELLQYPFHMIIPLQNLQIPSRTANSN
chain 2: MGDVMNIDSIISRLLEVRGARPGKNVQLSEGEIRGLCLKSREIFLSQPILLELEAPLKICGDIHGQYYDLLRLFEYGGFPPESNYLFLGDYVDRGKQSLETICLLLAYKIKYSENFFLLRGNHECASINRIYGFYDECKRRYSIKLWKTFTDCFNCLPVAAIVDEKIFCCHGGLSPDLTSMEQIRRIMRPTDVPDQGLLCDLLWSDPDKDTMGWGENDRGVSFTFGAEVVAKFLQKHEFDLICRAHQVVEDGYEFFAKRMLVTLFSAPNYCGEFDNAGAMMSVDDTLMCSFQILKPADKRKK

Variants of: B1
Experiment: pull-down (MBP-PP1-87B beads, S2 cell lysates), western blot chemiluminescence quantification
Conditions: with MBP-PP1-87B [Drosophila]; at least two independent experiments; mean ± SD; parent: 1; read off a plot

Row | ratio to parent | Variant
1 | 0.3 | chain 1 K231A F234A
